Experimental findings from patent publication US20210292397A1 (LA TROBE UNIVERSITY, published 2021) are described below.

The labels stand for the following.
B5: Ag43a passenger domain (Ag43a^α) from UPEC strain CFT073 (other)
chain: ADIVVHPGETVNGGTLVNHDNQFVSGTANGVTVSTGLELGPDSDENTGGQWIKAGGTGRNTTVTANGRQIVQAGGTASDTVIRDGGGQSLNGLAVNTTLDNRGEQWVHGGGKAAGTIINQDGYQTIKHGGLATGTIVNTGAEGGPESENVSSGQMVGGTAESTTINKNGRQVIWSSGMARDTLIYAGGDQTVHGEAHNTRLEGGNQYVHNGGTATETLINRDGWQVIKEGGTAAHTTINQKGKLQVNAGGKASDVTQNTGGALVTSTAATVTGTNRLGAFSVVAGKADNVVLENGGRLDVLSGHTATNTRVDDGGTLDIRNGGAATTVSMGNGGVLLADSGAAVSGTRSDGKAFSIGGGQADALMLEKGSSFTLNAGDTATDTTVNGGLFTARGGTLAGTTTLNNGAILTLSGKTVNNDTLTIREGDALLQGGSLTGNGSVEKSGSGTLTVSNTTLTQKAVNLNEGTLTLNDSTVTTDVIAQRGTALKLTGSTVLNGAID
notes: also called Ag43^α; α^43a

Data set [1] concerns the molecule itself. The data set can be described thus: crystal structure (FIG. 12A).
Data set [2] deals with the molecule itself. The experiment in a line: crystal structure (FIG. 12B).
The target in data set [3] is B5.
The target of a further data set is human fibronectin (human, UniProt P02751 32-2477).
A further data set deals with T1, Fibrinogen.
T1 construct: also called human fibrinogen
T1 alpha: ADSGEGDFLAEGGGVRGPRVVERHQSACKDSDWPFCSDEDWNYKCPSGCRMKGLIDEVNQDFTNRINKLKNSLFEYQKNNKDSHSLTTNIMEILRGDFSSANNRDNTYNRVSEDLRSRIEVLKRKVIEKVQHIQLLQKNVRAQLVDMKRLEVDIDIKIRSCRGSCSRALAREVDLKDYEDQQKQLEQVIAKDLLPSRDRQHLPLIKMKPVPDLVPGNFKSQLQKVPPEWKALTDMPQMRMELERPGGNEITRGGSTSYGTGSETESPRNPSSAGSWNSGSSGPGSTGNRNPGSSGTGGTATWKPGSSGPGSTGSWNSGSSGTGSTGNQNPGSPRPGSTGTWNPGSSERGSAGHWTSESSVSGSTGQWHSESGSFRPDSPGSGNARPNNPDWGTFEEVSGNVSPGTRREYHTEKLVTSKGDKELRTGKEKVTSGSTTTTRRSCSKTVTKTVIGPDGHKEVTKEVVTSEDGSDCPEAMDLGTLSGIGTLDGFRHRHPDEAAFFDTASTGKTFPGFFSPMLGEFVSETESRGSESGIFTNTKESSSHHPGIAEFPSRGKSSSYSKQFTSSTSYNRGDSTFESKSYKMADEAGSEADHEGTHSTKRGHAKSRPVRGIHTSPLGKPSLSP
T1 beta: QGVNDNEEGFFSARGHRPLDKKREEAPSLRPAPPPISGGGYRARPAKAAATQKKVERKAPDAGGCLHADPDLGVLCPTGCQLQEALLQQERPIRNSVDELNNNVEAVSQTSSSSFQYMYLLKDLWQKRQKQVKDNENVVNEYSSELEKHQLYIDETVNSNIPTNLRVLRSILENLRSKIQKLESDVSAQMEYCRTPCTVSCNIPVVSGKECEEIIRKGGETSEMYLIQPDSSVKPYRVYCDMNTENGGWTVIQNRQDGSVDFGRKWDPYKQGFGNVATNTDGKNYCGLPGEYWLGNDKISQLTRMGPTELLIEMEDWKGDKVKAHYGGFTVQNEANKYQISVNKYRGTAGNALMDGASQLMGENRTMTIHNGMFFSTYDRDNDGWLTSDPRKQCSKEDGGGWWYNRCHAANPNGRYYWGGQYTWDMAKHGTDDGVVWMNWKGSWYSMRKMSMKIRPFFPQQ
T1 gamma: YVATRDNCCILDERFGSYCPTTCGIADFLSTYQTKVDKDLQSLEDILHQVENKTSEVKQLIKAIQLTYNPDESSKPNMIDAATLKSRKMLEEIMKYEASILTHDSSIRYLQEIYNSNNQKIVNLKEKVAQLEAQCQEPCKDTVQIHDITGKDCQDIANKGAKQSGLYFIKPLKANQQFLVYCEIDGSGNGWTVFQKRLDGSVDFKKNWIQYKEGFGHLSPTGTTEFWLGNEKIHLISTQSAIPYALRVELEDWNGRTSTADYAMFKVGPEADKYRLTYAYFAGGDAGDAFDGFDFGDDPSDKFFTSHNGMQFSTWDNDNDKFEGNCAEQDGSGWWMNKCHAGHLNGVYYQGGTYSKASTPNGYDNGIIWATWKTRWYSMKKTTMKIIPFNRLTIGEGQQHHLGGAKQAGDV
The data set can be described thus: ELISA, absorbance at 405 nm, n=9, PBS as control. Background: An ELISA detects its analyte on a solid surface through an enzyme-linked reagent.

Data set [4] deals with the molecule itself. The experiment in a line: crystal structure (FIG. 1B).
Data set [5] concerns the molecule itself. The data set can be described thus: crystal structure (FIG. 12D).
Data set [6] concerns the molecule itself. The experiment in a line: crystal structure (FIG. 12C).

human fibronectin, sequence (P02751 32-2477 limits assumed): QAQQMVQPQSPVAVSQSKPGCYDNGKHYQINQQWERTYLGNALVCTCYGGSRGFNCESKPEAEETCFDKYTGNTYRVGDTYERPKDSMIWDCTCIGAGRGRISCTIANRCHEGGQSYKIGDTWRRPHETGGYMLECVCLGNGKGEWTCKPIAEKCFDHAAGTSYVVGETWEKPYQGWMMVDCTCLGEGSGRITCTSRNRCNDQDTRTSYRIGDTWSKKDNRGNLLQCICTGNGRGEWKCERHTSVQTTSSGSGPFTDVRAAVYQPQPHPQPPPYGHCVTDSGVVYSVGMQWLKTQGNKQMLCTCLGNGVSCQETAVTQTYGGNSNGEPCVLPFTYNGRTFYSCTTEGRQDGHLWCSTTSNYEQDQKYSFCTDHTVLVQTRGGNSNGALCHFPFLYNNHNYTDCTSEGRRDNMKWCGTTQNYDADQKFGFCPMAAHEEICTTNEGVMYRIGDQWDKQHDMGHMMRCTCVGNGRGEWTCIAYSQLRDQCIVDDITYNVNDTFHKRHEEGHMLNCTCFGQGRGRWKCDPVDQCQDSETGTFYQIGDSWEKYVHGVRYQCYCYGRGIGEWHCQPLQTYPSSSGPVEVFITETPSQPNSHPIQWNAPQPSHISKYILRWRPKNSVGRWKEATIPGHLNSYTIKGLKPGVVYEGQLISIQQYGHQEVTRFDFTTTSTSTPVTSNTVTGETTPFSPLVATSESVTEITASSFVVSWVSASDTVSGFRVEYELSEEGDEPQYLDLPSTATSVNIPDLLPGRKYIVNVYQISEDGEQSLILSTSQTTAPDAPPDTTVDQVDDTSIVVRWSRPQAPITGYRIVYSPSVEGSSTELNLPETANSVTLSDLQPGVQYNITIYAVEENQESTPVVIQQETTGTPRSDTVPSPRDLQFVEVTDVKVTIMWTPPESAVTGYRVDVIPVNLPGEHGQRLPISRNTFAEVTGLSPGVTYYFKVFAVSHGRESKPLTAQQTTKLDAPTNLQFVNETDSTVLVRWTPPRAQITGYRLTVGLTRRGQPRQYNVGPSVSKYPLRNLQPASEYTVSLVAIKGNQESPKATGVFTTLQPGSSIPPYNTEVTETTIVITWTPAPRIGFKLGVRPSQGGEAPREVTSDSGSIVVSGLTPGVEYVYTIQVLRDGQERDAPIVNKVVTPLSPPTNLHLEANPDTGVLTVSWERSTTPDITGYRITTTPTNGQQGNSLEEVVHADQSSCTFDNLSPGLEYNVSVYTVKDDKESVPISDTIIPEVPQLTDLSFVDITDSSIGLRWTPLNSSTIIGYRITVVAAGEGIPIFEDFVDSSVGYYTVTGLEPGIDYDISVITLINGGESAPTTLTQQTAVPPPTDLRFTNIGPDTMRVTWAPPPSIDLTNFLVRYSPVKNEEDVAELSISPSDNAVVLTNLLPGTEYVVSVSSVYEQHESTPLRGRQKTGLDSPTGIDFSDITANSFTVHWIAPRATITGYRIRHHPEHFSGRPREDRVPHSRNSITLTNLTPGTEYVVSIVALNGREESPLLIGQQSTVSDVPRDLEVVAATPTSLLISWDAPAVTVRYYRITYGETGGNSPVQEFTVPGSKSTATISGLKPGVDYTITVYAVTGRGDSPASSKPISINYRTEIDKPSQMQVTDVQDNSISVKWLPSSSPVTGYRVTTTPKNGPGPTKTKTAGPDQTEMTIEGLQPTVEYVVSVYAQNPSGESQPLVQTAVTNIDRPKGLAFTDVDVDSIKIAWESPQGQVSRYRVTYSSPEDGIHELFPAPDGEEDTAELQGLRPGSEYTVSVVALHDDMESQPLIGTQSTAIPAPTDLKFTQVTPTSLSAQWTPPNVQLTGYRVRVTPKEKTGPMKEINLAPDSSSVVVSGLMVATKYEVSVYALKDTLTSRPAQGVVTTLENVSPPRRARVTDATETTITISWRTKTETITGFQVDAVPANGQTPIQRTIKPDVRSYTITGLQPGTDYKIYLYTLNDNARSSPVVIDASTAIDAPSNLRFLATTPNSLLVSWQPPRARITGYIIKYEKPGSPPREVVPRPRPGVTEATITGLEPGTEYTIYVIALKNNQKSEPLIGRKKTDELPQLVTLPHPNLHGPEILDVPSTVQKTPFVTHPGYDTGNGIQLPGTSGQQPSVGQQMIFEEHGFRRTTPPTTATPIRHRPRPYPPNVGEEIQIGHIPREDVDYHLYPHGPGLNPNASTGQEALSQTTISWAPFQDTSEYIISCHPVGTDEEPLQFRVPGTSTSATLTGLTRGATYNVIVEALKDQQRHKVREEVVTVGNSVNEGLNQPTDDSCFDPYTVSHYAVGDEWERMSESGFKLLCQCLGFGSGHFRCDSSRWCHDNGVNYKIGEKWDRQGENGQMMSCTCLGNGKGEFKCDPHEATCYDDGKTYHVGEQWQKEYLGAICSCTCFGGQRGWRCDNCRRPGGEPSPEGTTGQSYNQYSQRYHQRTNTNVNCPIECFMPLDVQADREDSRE

B1: Ag43 passenger domain (Ag43^α) from E. coli strain EDL933 (other)
chain: ADKVVQAGETVNDGTLTNHDNQIVFGTANGMTISTGLELGPDSEENTGGQWIQNGGIAGNTTVTTNGRQVVLEGGTASDTVIRDGGGQSLNGLAVNTTLNNRGEQWVHEGGVATGTIINRDGYQSVKSGGLATGTIINTGAEGGPDSDNSYTGQKVQGTAESTTINKNGRQIILFSGLARDTLIYAGGDQSVHGRALNTTLNGGYQYVHRDGLALNTVINEGGWQVVKAGGAAGNTTINQNGELRVHAGGEATAVTQNTGGALVTSTAATVIGTNRLGNFTVENGKADGVVLESGGRLDVLESHSAQNTLVDDGGTLAVSAGGKATSVTITSGGALIADSGATVEGTNASGKFSIDGTSGQASGLLLENGGSFTVNAGGQAGNTTVGHRGTLTLAAGGSLSGRTQLSKGASMVLNGDVVSTGDIVNAGEIRFDNQTTPNAALSRAVAKSNSPVTFHKLTTTNLTGQGGTINMRVRLDGSNASDQLVINGGQATGKTWLAFTNVGNSNLGVATTGQGIRVVDAQNGATTEEGAFALSRPLQAGAFNYTLNRDSDE
B1: the binding result in data set [1] is recorded as “binds”.

B2: Ag43 passenger domain (Ag43^α) from UPEC strain UTI189 (other)
chain: ADTVVQAGETVNGGTLTNHDNQIVLGTANGMTISTGLEYGPDNEANTGGQWIQNGGIANNTTVTGGGLQRVNAGGSVSDTVISAGGGQSLQGQAVNTTLNGGEQWVHEGGIATGTVINEKGWQAVKSGAMATDTVVNTGAEGGPDAENGDTGQTVYGDAVRTTINKNGRQIVAAEGTANTTVVYAGGDQTVHGHALDTTLNGGYQYVHNGGTASDTVVNSDGWQIIKEGGLADFTTVNQKGKLQVNAGGTATNVTLTQGGALVTSTAATVTGSNRLGNFTVENGNADGVVLESGGRLDVLEGHSAWKTLVDDGGTLAVSAGGKATDVTMTSGGALIADSGATVEGTNASGKFSIDGISGQASGLLLENGGSFTVNAGGLASNTTVGHRGTLTLAAGGSLSGRTQLSKGASMVLNGDVVSTGDIVNAGEIRFDNQTTPDAALSRAVAKGDSPVTFHKLTTSNLTGQGGTINMRVRLDGSNASDQLVINGGQATGKTWLAFTNVGNSNLGVATSGQGIRVVDAQNGATTEEGAFALSRPLQAGAFNYTLNRDSDE
As for B2, in data set [2], the binding result is on record as “binds”.

B3: Fab10C12 (Fab, V domains shown)
VH: QVQLQQPGTELVKPGASVKLSCKASGYTFTNYWMHWVKQRPGQGLEWIGNIGPSSGNTNYNENFKTKATLTVDKSSSTAYMQLSSLTSEDSAVYFCARWGSIRAMDYWGQGTSVTVSS
VL: SIVMTQTPKFLFVSVGDRVTITCKASQSVNNDVAWYQQKPGQSPKLLIYFASNRYTGVPDRFTGSGYGTDFTFTINTVQAEDLAVYFCQQDYSSPQTFGGGTKLEVTR
The Kd is the free concentration of one partner at which half of the binding sites on the other are occupied at equilibrium, for simple one-to-one binding. B3 returned a Kd in data set [3] of 0.00728 µM.

B4: UpaB α-domain (α^UpaB) from UPEC strain CFT073 (other)
chain: TDSTVSTDPVTLNTEKTTLDQDVVINGDNKITAVTIETSDSDKDLNVTFGGHDITAASTVNQDFVEGVKVSGNKNVVINATDSTITAQGEGTYVRTAMVIDSTGDVVVNGGNFVAKNEKGSATGISLEATTGNNLTLNGTTINAQGNKSYSNGSTAIFAQKGNLLQGFDGDATDNITLADSNIINGGIETIVTAGNKTGIHTVNLNIKDGSVIGAANNKQTIYASASAQGAGSATQNLNLSVADSTIYSDVLALSESENSASTTTNVNMNVARSYWEGNAYTFNSGDKAGSDLDINLSDSSVWKGKVSGAGDASVSLQNGSVWNVTGSSTVDALAVKDSTVNITKATVNTGTFASQNGTLIVDASSENTLDISGKASGDLRVYSAGSLDLINEQTAFISTGKDSTLKATGTTEGGLYQYDLTQGADGNFYFVKNTHKASNASSVIQAMAAAPANVANLQADTL
notes: also called α^UPaB (native)
In the data set with human fibronectin, B4 had a Kd of 45.2 µM. In addition, the binding result with Fibrinogen was “no binding”.

B5: the binding result in data set [4] is “binds”.

B6: TibA passenger domain (TibA^α) from the enterotoxigenic E. coli strain H10407 (other)
chain: YDNQTIGRGETSKSMHLSAGDTAKNTTINSGGKQYVSSGGSATSTTINIGGVQHVSSGGSATSSTINSGGHQHVSSGGSATNTTVNNGGRQTVFSGGSAMGTIINSGGDQYVISGGSATSASVTSGARQFVSSGGIVKATSVNSGGRQYVRDGGSATDTVLNNTGRQFVSSGGSAAKTTINSGGGMYLYGGSATGTSIYNGGRQYVSSGGSATNTTVYSGGRQHVYIDGNVTETTITSGGMLQVEAGGSASKVIQNSGGAVITNTSAAVSGTNDNGSFSIAGGSAVNMLLENGGYLTVFDGHQASDTMVGSDGTLDVRSGGVLYGTTTLTDKGALVGDVVTNEGNLYYLNNSTATFTGTLTGTGTLTQEGGNTRFSGLLSQDGGIFLQSGGAMTMDALQAKANVTTQSGTTLTLDNGTILTGNVAGDSTGAGDMAVKGASVWHLDGDSTVGALTLDNGTVDFRPSTTTRMTPAFQAVSLALGSLSGSGTFQMNTDIASHTGDMLNVAGNASGNFVLDIKNTGLEPVSAGAPLQVVQTGGGDAAFTLKGGKVDAGTWEYGLSKENTNWYLKADT
Regarding B6, the binding result in data set [5] is “binds”.

B7: Ag43b passenger domain (Ag43b^α) from uropathogenic E. coli strain CFT073 (other)
chain: ADSVVPAGETVNGGTLINHDRQFVSGTADGMTVSTGLELGADSDNNTGGQQIARGGTARNTRVTANGLQDVMAGGSTSDTVISTGGGQNLRGKASGTVLNGGDQWIHAGGRASGTVINQDGYQTIKHGGLVTGTIVNTGAEGGPDSENVSTGQMVGGIAESTTINKNGRQVIWSSGIARDTLIYTGGDQTVHGEAHNTRLEGGNQYVHKYGLALNTVINEGGWQVVKAGGTAGNTTINQNGELRVHAGGEASDVTQNTGGALVTSTAATVTGTNRLGAFSVVEGKADNVVLENGGRLDVLSGHTATRTLVDDGGTLDVRNGGTATAVSMGNGGVLLADSGAAVSGTRSDGTAFRIGGGQADALMLEKGSSFTLNAGDTATDTTVNGGLFTARGGSLAGTTTLNNGATFTLAGKTVNNDTLTIREGDALLQGGALTGNGRVEKSGSGTLTVSNTTLTQKAVNLNEGTLTLNDSTVTTDIIAHRGTALKLTGSTVLNGAIDPTNVTLTSGATWNIPDNATVQSVVDDLSHAGQIHFTSARTGKFVPTTLQVKNLNGQNGTISLRVRPDMAQNNADRLVIDGGRATGKTILNLVNAGNSGTGLATTGKGIQVVEAINGATTEEGAFVQGNMLQAGAFNYTLNRDSDESWYLRSEE
notes: also called Ag43bCFT073^α
B7: the binding result in data set [6] was “binds”.
